The nanobody polyreactivity screen of Harvey et al. (2022)

Assay: yeast display, Sf9 membrane polyspecificity reagent, FACS + sequencing; frameworks hold sequencing errors
Procedure, shortened: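 A nanobody's polyreactivity label depends on the gate it was sorted from. Yeast display cells were stained with 10% biotinylated, detergent-solubilized Sf9 membrane reagent for 1 hour at 4 °C, enriched on streptavidin microbeads and sorted by FACS. The low and high (top ~1%) gates were set on anti-HA fluorescence for expression and streptavidin fluorescence for reagent binding.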

QVHLVESGGGLVQAGGSLRLSCAASGRIYAFYAMGWYRQAPGKERELVAAISSGGNTKYADSVKGRFTISRDNAKNTVYLQMNSLKPEYTAVFYCDARTPWYNKGDYWGLGTQVTVSS
polyreactivity (PSR sort gate): low polyreactivity

QVQLQDSGGGLVLAGGSLRLSCSASGNISVYGSMGWYRQAPGKEREFVATIDPGTNTNYADSVKDRFTISRDNAKNTVYLQMNSLKPEDTAVYYCAVEAGSDWPYRYWGQGTQVTVSS
polyreactivity (PSR sort gate): low polyreactivity

QVQLVESGGGLVQAGGSLRLSCAASGATFYLNDMGWYREAPGKERELVAAIDWSGGSTYYADSVKGRFTISRDNAKNTVYLQMNSLKPEDTAVYYCAARLVYEWRRLDYFIAWDYCGQGTQVTVSS
polyreactivity (PSR sort gate): low polyreactivity

QVQLVESGGGLVQAGGSLRLSCAASGRTFYHYAIGWSRQAPGKEREMVAAITRRGGSTYYADSVKGRFTISRDNAKNTVYLQMNRLKPEDTAVYYCAVDGVTSRRYVYEYWGQGTQVTVSS
polyreactivity (PSR sort gate): high polyreactivity

QVQLVESGGGLVQAGGSLRLSCAASGSTFLRYAMGWYRQAPGKERELVAAINLSGDRTYYADSVKGRFTISRDNAKNTDYVQMNSLKPEDTAVYYCAARWWGPSYDAYDYWVQGTQVTVSS
polyreactivity (PSR sort gate): low polyreactivity

QVQHVESGGGLVQAGGSLRLSCAASGRTFNLKAMGWYRQAPGKERELVAAISWSGGSTYYADSVKGRFTISRDNAKNTVYLQMNSLKPEDTAVYYCAAETYAYLFHTYDYWGQGTQVTVSS
polyreactivity (PSR sort gate): low polyreactivity

QVKRVESGGGLVQAGGSLRLSCAASGIMFSPNDMGRFRQGPGKERELVARITTDGSSTYYADSVKGRFTISRDNAKNTVYLQINSLKPEDTAVYSCNADQLWYSLFDYWGQGTLVTVSS
polyreactivity (PSR sort gate): high polyreactivity

QVQIVESGGGLVQAGGSLRLSCAASGIIFYYYAMGWYRPAPGKERELVAGISYSGGSTYADSVKGLFTISRDNAKNTVYLQMNSLKPEDTAVYDCAADYDYGGHWYDYWGQGTQVTVSS
polyreactivity (PSR sort gate): low polyreactivity

QVQLVESGGGLVQAGGSLRLSCAASGSTFGSYTMGWYRQPPGKERELVAAINWSGGNTYYADSVKGRFTISRDNAKNTVYLQMNSLKPEDTAVYYCAAAFYIYGFEGDYWGQGTQVTVSS
polyreactivity (PSR sort gate): low polyreactivity

QVQLVESGGGLVQAGGSLRLSCAASGSIFPGNAMRWYRQAPGKERELVATITWSGGSTYYADSVKGRFTISRDNAKNTVYLQINSLKPEDTAVYYCNADSNWYYQWNYYGLYDYWGQGTQVTVSS
polyreactivity (PSR sort gate): low polyreactivity

QVQLVESGGGLVQAGGSLRLSCAASGSIFYYYAMGWYRQAPGKERELVAANDFGGGSTYYADSVKGRFTISRDNAKNTVYLQMNSLKPEDTAVYYCAARTFKDAGSAYGSWGQGTQVTVSS
polyreactivity (PSR sort gate): high polyreactivity

QDQLVESGGGLVQAGGSLRLSCAASGRFFKWYAMGWYRQAPGKEREFVAGISSSGTSTYYADSVKGRFTISRDNAKKTVSLQRNSLKPEDTAVYYCNKLGSTLDFGYWGQGTQVTVSS
polyreactivity (PSR sort gate): high polyreactivity

QVQLVESGGGLVQAGGSLRLSCAASGSIIQVYAMGWYRQATGKERELVASITRTGGSTYYADSVKGRFTISRDNAKNTVYLLMNSLKPEDTAVYYCAAEKRYYYYVKYWKSDYWGQGTQVTVSS
polyreactivity (PSR sort gate): low polyreactivity

QVQLVESGGGLVQAGGSLRLSCAASGFTFRYYAMGWYRQAPGTERELVAGITRSGGSTYYADSVKGRFTISRDNAKNTVYLQMNSLKPEDTAVYYCAAYRSIYGTRAPREFESWGQGTQVTVSS
polyreactivity (PSR sort gate): high polyreactivity

QVQLVESGGGLVQAGGSLRLSCAASGRNFAGYAMLWYRQAPGKERELVATISSGGSTYYADSVKGRFTISRDNAKNTVYLQKNSLKPEDTAVYYCAAEYGTRQYSSYYKLFNYWGQGTQVTVSS
polyreactivity (PSR sort gate): low polyreactivity

QVQLVESGGGLVQAGGSLRLSCAASGRIFAYYAMGWYRQAPGKERELVAAITTNGGGTYYADSVKGRFTISRDNETNTVYLQMNSLKAEDTAVYYCAKRSWIEYDYWGQGTQVTVSS
polyreactivity (PSR sort gate): low polyreactivity

QVQLVESGGGLVQAGGSLRLSCAASGIIFYDYAMGWYRQAPGKERELVAAIDTGDSTYYADSVKGRFTISRDNAKKTVDLQMNSLKPEDTAVYYCAADYIFYTYIFYWGQGTQVTVSS
polyreactivity (PSR sort gate): high polyreactivity

QVQLVESGGGLVQAGGSLRLSCAASGNIFLYYAMGWYRQAPGKERELVADIDSSGASTYYADSVKGRFTISRDNAKNTVYLQMNSLKPEDTAVYYCAARGRKNQRRYGYWGQGTQVTVSS
polyreactivity (PSR sort gate): low polyreactivity

QVQLVESGGGLVQAGGSLRLSCAASGGIFDVYAMGWYRQAPGKERELVAAITASGGSTYYADSVKGRFTISRDNAKNTVYLQMNSLKPEDTAVYYCNAYYYYLFHRYDYWGQGTQVTVSS
polyreactivity (PSR sort gate): low polyreactivity

QVQHVESGGGLVQAGGSLRLSCAASGSIFNYYDMGWYRQAPGKEREFVARITIGGSSTNYADSVKGRFTISRDNAKNTVYLQMNSLTPEDTAVYYCAAAQYGIFFSQMDYWGQGTQVTVSS
polyreactivity (PSR sort gate): low polyreactivity

QVQLVESGGGLVQAGGSLRLRCAASGFTFYLYAMGWYRQAPGKERELVAAITWSGGRTYYADSVKGRFTNSRDNAKNTVYLQMNSLKPEYTAVYYCAAVVRKQLSAPSDYWGQGTQVTVSS
polyreactivity (PSR sort gate): high polyreactivity

QVQLVESGGGLVQAGGSLRLSCAASGCTSTSNAMGWYRQAPGKERELVALISSGGSTYYAVSVKGRFTISRDNAKNTVYLQMNSLKQEDTAVYYCAARRGTGSYSYRYPYGYDYWGQGTQVTVSS
polyreactivity (PSR sort gate): low polyreactivity

QFQLVESGGGLVLAGGSLRLSCAASGRTYLVNAMGWYRQAPGKERELVAVITRGGSTNYADSVKGRFTISRDNAKNTDYLQMNSLKPEDTAVYYCAKQFSPYRSYGPVVRYDYWGLGTQVTVSS
polyreactivity (PSR sort gate): low polyreactivity

QVQLVESGGGLVQAGGSLRLSCAASGLIFVNNPMGWYRQAPGKERELVAAISWSTGGSTYYADSVKGRFTISRDNAKNSVYLQMNSLKPEDTAVYYCAAQYSYGEYWGYDYWGQGTQVTVSS
polyreactivity (PSR sort gate): low polyreactivity

QVQLVESGGGLVQAGGSLRLSCAASGRIFGLNSLGWYRQAPGNEMELVAAIDIIGGSTYYADSVKGRFTISRDNAKNTVYLQMNSLKPEDTAVYYCAAEADFWRYVEYDYWGQGTQVTVSS
polyreactivity (PSR sort gate): low polyreactivity

QVQLVESGGGLVQAGGSLRLSCAPSGRTFRYYTMGWYRQAPGKERELVAAISSAGRTYYADSVKGRFTISRDNAKNTVYLQMNSLKPEDTAVYYCAAYGGDKIRMDYWGQGTQVTVSS
polyreactivity (PSR sort gate): high polyreactivity

QVQLVESGGGLVQAGGSLRISCAASGFIFAHNAMGWYRQAPGKERELVAAITSSGGSTYYADSVKGRFTISRDNAKNTVYLQMNSLKPEDTAVYYCAAYWKLGGFRYGYWGQGTQVTVSS
polyreactivity (PSR sort gate): high polyreactivity

QVQLVESGGGLVQAGGSLRLSCAASGITFTYNAMGWYRPAPGKERELVAAITWSGGSTFYADSVKGRFTISRDNAKNTVYLQMNSLKPEDTAVYYCARDTELYDRWLDYWGQGTQVTVSS
polyreactivity (PSR sort gate): low polyreactivity

QVQLVESGGGLVQAGGSLRLSCAASGIIFVAYARGWYRQAPGKERELVAAITWGGGRTYYADSVKGRFTISRDNAKNTVYLQMNSLKPEDTAVYYCAAVVWYDPRATYVYWGQGTQVTVSS
polyreactivity (PSR sort gate): low polyreactivity

QVQLVESGGGLVQAGGSLRLSCAASGSIFSSYSMGWYRQAPGKERELVAAISSGDSTYYADSVKGRFTISRDNAKNTVYLQMNSLKPEDTAVYYCAAPWYAWGQGTQVTVSS
polyreactivity (PSR sort gate): low polyreactivity

QVQLVESGGGLVQAGGSLRLSCAASGRILGPNAMGWYRQAPGKERELVAAINSGGSTNYADSVKGRFTISRDNAKNTVYLQMNSLKPEDTAVSYCAPDKARVAGYGVEYDYWGQGTQVTVSS
polyreactivity (PSR sort gate): low polyreactivity

QVQLVESGGGLLQAGGSLRLSCAASGIIFGRYTMGWYRKAPGKETELVAAITSSGITYYADSVKGRFTISRDNAKNTVYLQMNSLKPEDTAVYYCYADYSIPGYYWPYDYWGQGTQVTVSS
polyreactivity (PSR sort gate): low polyreactivity

QVQLVESGGGLVQAGGSLRLSCAASGFIFNVNAMGWYRQAPGKEREFVAVSTYADSVKGRFTISRDNAKNTVYLQMNSLKPEDTAVYYCAATFVQPVYDYDYWGQGTQVTVSS
polyreactivity (PSR sort gate): low polyreactivity

QDQHVESGGGLVQAGGSLRLICSASGSTNGLGWYRQAPGKERELVAVITWDTGGTYYADSVKGRFTISRDNAKNTVYLQMNSLKPEDTAVYYCAKDVGHGAGNLMGYWGQGTQVTVSS
polyreactivity (PSR sort gate): low polyreactivity

QVQLVESGGGLVQAGGSLRLSCAASGSTFRVYAMGWYRQAPGKERELVAAITRIGGRTYYADSVKGRFTISRDNAKNTVYLQMNSLKPEDTAVYYCAARYPGGYSSGYNYWGQGTQVTVSS
polyreactivity (PSR sort gate): high polyreactivity

QVQLVESGGGLVQAGGSLRLSCAASGSIYDPYAMGWYRQAPGKERELVAAINGGSGSTFYADSVKGRFTISRDNAKNTVYFQMNSLKPEDTAVYYCAAKIWRYSPSYYPEPRGDYWGQGTQVNVSS
polyreactivity (PSR sort gate): low polyreactivity

QVQLVESGGGLVQAGGSLRLSCAASGRTFTKYAMGWYIQAPGKERELVASISTRGGSTYYADSVKGRFTISRDNAKNTVYLQMNSLKPEDTAVYYCNKGFRHRAPSSTPYDYWGQGTQVTVSS
polyreactivity (PSR sort gate): high polyreactivity

QVQLVESGGGLVEAGGSLRLSCAASGRIFTYYAMGWYRQAPGKERELVASISRSGGNTYYADSVKGRFTISRDNAKNTVYLQMNSLKPEDTAVYYCDAVYSRLDYWGQGTQVTVSS
polyreactivity (PSR sort gate): high polyreactivity

QVQLVESVGGLVQAGGSLRLSCAASGSIFTHNTMGWYRQAPGKERELVASIDSGASTNYADSVKGRFTISRDNAKNTVYLQMNSLKPEDTAVYYCAARDYDWGYPYYYWGQGTQVTVSS
polyreactivity (PSR sort gate): low polyreactivity

QVQLVESGGGLVQAGGSLRLSCAASGYTFDAYAMGWYRQAHGKERELVAAINYSGGSTYADSVKGRFTISRDNAKNTVYLQMNSLKPEDTAVYYCATRLYGYWPNGFDYWGQGTQVTVSS
polyreactivity (PSR sort gate): low polyreactivity

QDQLVESGGGLVQAGGSLRLTCAASGFTIWYYAMGWYRQAPGKERELVAAISSVSSTKYADSVKGRFTISRDNAKNTVYFQMNSLKPEDTAVYYCAADIVRYWRHGFGWRRYDYWGQGTQVTVSS
polyreactivity (PSR sort gate): high polyreactivity

QVQLVESVGGLVQAGGSLRLSCAASVFNLKSNAMGWYRQATGKERELVAAISSSGGSTYYADSVKGRFTISRDNAKNTVYLQMNSLKPEDTAVYYCNVAQYLRARRPVDYWGHGTQVTVSS
polyreactivity (PSR sort gate): high polyreactivity

QVQLVESGGCLGQAGGSLRLTCAASAFTFRHYTKGWYRQAPGKVRVLVAVITRSGGSTYYADSVKGRFTISRDNAKNTVYLQMNRLKPEDTAVYYCAARYKREYNYWGQGTQVTVSS
polyreactivity (PSR sort gate): high polyreactivity
